Assay results published in paper PMC10218236, “Structural Optimization and Interaction Study of a DNA Aptamer to L1 Cell Adhesion Molecule”.

Biological target: L1CAM protein (Sino Biological) (UniProt P32004 20-1120)
Test: DMS footprinting; 100 nM DNA, 300 nM L1CAM; PBS, 4.5 g/L glucose, 5 mM MgCl2, 1 mg/mL BSA, 0.1 mg/mL herring sperm DNA; 30 min at 4 °C (or 25/37 °C); pH not stated
Details: protein: commercial; label: FAM (3' FAM in DMS footprinting); hairpin, two stems, two loops, T bulge in stem I

Chain of L1CAM protein (Sino Biological) (P32004 20-1120): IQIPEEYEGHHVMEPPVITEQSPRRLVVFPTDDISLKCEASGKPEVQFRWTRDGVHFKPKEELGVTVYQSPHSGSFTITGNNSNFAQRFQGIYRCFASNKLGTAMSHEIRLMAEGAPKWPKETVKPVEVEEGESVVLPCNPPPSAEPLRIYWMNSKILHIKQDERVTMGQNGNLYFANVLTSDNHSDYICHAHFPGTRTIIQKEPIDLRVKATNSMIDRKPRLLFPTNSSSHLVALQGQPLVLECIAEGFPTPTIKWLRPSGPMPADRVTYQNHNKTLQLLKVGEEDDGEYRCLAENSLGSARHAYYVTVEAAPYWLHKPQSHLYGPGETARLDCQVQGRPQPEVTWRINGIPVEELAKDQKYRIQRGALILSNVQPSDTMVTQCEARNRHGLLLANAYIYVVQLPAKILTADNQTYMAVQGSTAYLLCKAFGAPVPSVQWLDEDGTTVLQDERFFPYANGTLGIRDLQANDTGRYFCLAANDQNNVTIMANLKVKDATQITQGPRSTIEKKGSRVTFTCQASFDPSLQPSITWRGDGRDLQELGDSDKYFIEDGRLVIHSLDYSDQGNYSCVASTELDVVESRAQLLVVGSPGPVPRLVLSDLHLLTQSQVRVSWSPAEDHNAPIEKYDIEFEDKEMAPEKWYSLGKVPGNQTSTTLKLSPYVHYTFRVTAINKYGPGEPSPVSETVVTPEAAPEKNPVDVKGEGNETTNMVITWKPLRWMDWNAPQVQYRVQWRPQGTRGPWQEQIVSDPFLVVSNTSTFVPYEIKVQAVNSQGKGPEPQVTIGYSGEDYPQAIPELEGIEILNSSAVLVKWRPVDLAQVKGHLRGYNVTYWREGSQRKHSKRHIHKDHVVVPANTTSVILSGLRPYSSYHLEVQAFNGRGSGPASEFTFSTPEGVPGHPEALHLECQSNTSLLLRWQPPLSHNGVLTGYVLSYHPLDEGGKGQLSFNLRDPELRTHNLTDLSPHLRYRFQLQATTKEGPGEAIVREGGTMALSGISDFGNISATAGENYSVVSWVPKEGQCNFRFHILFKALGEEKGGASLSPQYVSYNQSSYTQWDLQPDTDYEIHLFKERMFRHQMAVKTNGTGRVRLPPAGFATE

B1: yly20 (ssDNA)
DNA: CAGATAGGGGGTAGCTCGGTCGTGTTTTTGGGTTGTTTGGTGGGTCTTCTG
B1: binds.
